From the NTF2 design screens of Basanta et al. (2020)

Assay: protease stability score; higher = more stable; yeast display proteolysis, trypsin and chymotrypsin;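 also: relative to predicted unfolded state with 0 unfolded-like and 1 meaning tenfold more protease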

Sequence: SEEEEISKELARLWLHLFFTGNEEKLTELFDPNARLIVGDKQRHGRERVIKIFHEWLLELGIDYLDIHHIEFQGEKVHMNTKVRQGDFETRTEVNLIIVNGRIKEVRFDLR
- protease stability score: 1.19

Sequence: SEEEEISKTAIELMIRALHTGDWQHWLHLADPHYRVNINGREHHGREDSLRIINELLELLGVERVELRLEDFRVIDGRIHIITKMHYNGVVTDNRLIMKKVDGKWQLDTVIVT
- protease stability score: 1.05

Sequence: SEEEEIVEKMARDLFEAMRTGDEDTLLKLLDPNVKHHWNGVEYHGWHDLHHWVERFKNMKVHFRINSVKVIGEKVHIKGELNLIFNGKIIRTDVDIHINLFNGRIKESTSDTN
- protease stability score: 2.04

Sequence: SEEEEIVKRFIELLDHVMKTGDEKFYEHMADPNTRVKQGEFEDHGREAFRWFLKEIRSKDVKTEHVELFDGRLRVEGRLLGVFNGQHVELHMILISVKVDGRWRVKMVIIH
- protease stability score: 1.52

Sequence: SEEEEIVREALKIWFHAMITGDERTLNEMVDPNVRVDVDGKELIGRKHMVELLRRFKNITIRHWHIKHLDIQGDKIEIDTRLDVEVNGRQEILTEKFHARKVDGRWFLSTREER
- protease stability score: 2.19

Sequence: SEEEEIVRHANHLFTHAMNTGDWRLLKELFDPHTKILIDGQEHHGWSIIYRELRHIRIDHVEMRIRSVHTQGNKAHVDGEIIVEGTVNGVTHKTSNRVNLIIRKVDGRWIVESIDIH
- protease stability score: 1.55

Sequence: SEEEEIYHKLAEWSKRVLETGDWREWRKLADPNTRLHVHVNGRQLDHHGRELVLTIFLWLYKHLGVKHVDERDLDYYGNKIDIHVDDRYDGRTIHNRIILFIIDGKVTSTTVHIEHE
- protease stability score: 1.38

Sequence: SEEEEIYKEYAELMIHIIKTGDEDALRLLLDPNTQTFINGRNIHGMDEHIRHWRHFFKKFKNMRIEITRLEIQGDKVRIHMRIEQGDKILHLLFIIVIINGRNEEIEVRIHTQ
- protease stability score: 1.69

Sequence: SEEEEIYKRAHKFFADVFLTGNEKELEHMLDPNVRLHVNGQDHHGWTDVFRIFNFLGADHYDVKHLDIQGDKVDLHSEVDINGRTRRIIFHSLKVNGQWKITHVQVD
- protease stability score: 1.24

Sequence: SEEEEIYKRIADLFLQIFSTGDEDRLHRLADPDVKWEYGDKKNVGMKDVIHYFEHIWMHVERSDNTDVDLQGNKARVDMRSDIRIEINGRELRIKVSVLIIIVKFNGRWTVHSLRIE
- protease stability score: 1.27

Sequence: SEEEEKAKKWLEEVLRAEETGDEEKLLELADPNVRWIFNGVDVIGRKHFERNIRESLEKIPNMRIEHFHLHRMETIDGRIDMETEEDGIINGRDIRTRRRIIVVKVDGRWIIKSVHLI
- protease stability score: 0.637

Sequence: SEEEEKARRLSELITRSFLTGDEEELEELLDPNARNIYNGVIVHGREEVSRLFHEEWLRYGIDHVRLEDMHIDVQGDKVDFHIIMRSEFNGRVHHVRVEVHIEKVDGRWVMKRLELRFS
- protease stability score: 0.977

Sequence: SEEEEKAVKVTEEILHNLLTGDWERLAEMLDPDTWLHQGDKHRHGREQVLKHFSDFYNEIRIEDFKIHDITVQGEKAISHGHVKMRYGDKVRETSVRFVLIVIDGRIDQIEVHVH
- protease stability score: 1.8

Sequence: SEEEEKFHRFYKLLLEMILTGNWKEVWDLMDPNARLDVIIGDKSIHNHGWKVILEFMREIRIRHVHIKHMEVYNGRIHLDEHRDIHFNGRDIRSDVIIHAVVIDGRFHHERIEFL
- protease stability score: 0.751

Sequence: SEEEEKIKKLHTDWLHLLLTGDEDRLKQLMDPHAKISIEQGDFHLDLHGREDIIEFYWEERHRIDHLDIRVRHIEVWNGKIITKEENRIDFNGRKHVTEVDLEIEIVDGKFRSLHIRIH
- protease stability score: 1.02

Sequence: SEEEEKLKKILELLRHRILTGDEEFYSRLIDPNARVNIDGKTTHGREEMEHILRELNEDYGVKHHTVRSTEIFDGVNWIRGEFRVNGRSRTVEIIIWVYNGRLKSSEFRFD
- protease stability score: 1.39

Sequence: SEEEEKRRKSAEDFMRSLVTGDEDDLSRLADPHVRLDINGKEHHGMEEFKRLLSEFWEEMGIKHVRIRRIDIQGNKAILHTEVDWNGRIHEVTIDVQTYNGRIKSVKVIIH
- protease stability score: 1.24

Sequence: SEEEEKTRRILEELFELFLTGDEQRTLELFDPNMRFHLHYGDKELHLHGREEVAKFLHDHRHRVKNVKFHLKKEEVQGDKAILYIRVEIDGQEVYLNIEIHVIDGKLHEVVERIHEV
- protease stability score: 2.25

Sequence: SEEEELADIALREIIETLRTGNEELLDKLVDPHVKILFDGREFIGRKDYLRLLREIRIHHVTIEDMEVQGEKVHINMRVDGEINGRRNDYKVQLIALKFNGKWIIEHEHLH
- protease stability score: 1.3

Sequence: SEEEELAERFYEKFLRLARTGDEDELKRLFDPHVRHYVDGRELIGRELLVKFLIEWRVHDSEIREVRIQGDKLWFNTVIHGNFNGVETKQEMEVRSRKIDGQWFATEVQIK
- protease stability score: 0.694

Sequence: SEEEELAERMIRIWQKDIRTGNEESLSKFIDPNVRNEYGDKTHHGRHVFADVIRRILDELGVTNVHSRLTRMEIQGDKVRVDVQINIDGQEYRIEVHFEKVNGRWNVTSWNIR
- protease stability score: 0.698

Sequence: SEEEELALKLLRVLWHHLETGDEETLNHLLDPDTRWNVDGVNFHGMRDFVRHFRERLKHARLHSLHVHRFSMINGVMHFDGEVNEIYGDKTERYRVRIELVVVNGRWKELYLHKI
- protease stability score: 1.55

Sequence: SEEEELALRFWHELTHYRETGDEESLLKYVDPHVRLDVNGKDIHGMEEIARFLVEIRVKIETHVHDIKLINGKIHMDVRLHIEFDIDGKNVKRRHESRVIVRKVNGKWIIKTFELT
- protease stability score: 0.53

Sequence: SEEEELAMRIAREVLELWYTGDEDRLTELADPNTRVIFQYGDKEISFHGREWYSKIMLEWRIERVDLRSERAIGDKYELDVHFVGHINGKRHNYRFHIHMLVVNGKLKNIEVRVK
- protease stability score: 2.2

Sequence: SEEEELAREAMRILIEAIVTGDEDEIRRLLDPHVRIEVHIGDKSIKNHGRESMVRILRWLGVDHIDIKRFRLEIQGEFLHLDLDTEFHFNGVTVRTRINNRSLKINGRWQTKEVKYFIE
- protease stability score: 1.27

Sequence: SEEEELARHAFELWTRSMLTGDEHTMEKLFDPNTRLDINGRDHVGRELFLEFIHRLLREWRFRDVKLEDVKSVNGVLFLKVRLDVEFDGRRYSLTVELIVTKINGKWHMTEIKMH
- protease stability score: 0.353

Sequence: SEEEELARHIFELWIKTLRTGDEKLLRELADPHVQVILLVDGRHLENHGWEEFVRIFKEWRIHRVHVHDVKVFENRIHMDGTIDYEIGDKRFITKRIVDLVVINGRLKRLEIQIH
- protease stability score: 2.66

Sequence: SEEEELARHSIEVMIRLYETGDWDSSVDMADPHTRVHINGRDLIGREFYSEWSKEHLKRYKNATIILEDHEVQGNKVKVRIRIIVGDKESEIIFYILKINGRWIWHTVEVR
- protease stability score: 2.19

Sequence: SEEEELARQVLELWIHWYQTGDEESFRKNIDPHTRFDINGKHLHGREHVSKHLHDRAREMRIHDVFIKDVRLQGEKARMDGVIDGTIGDKRHEFKVEVTVQSINGRIDHLEFRFR
- protease stability score: 1.18

Sequence: SEEEELATEIFRKWIELLETGDEHTFRELADPDYRLIILYGDFIINDIGRERAIERWKQHLKQFDHWEIIIDRERVVNGVVHVDGILVLRINGREHNRRVKIELFIFDGRMKEVDIHID
- protease stability score: 2.6

Sequence: SEEEELAVKMWEIWLRSFLTGDETRLDQMMDPHAKLERIINGKRQHTHGWENVLKELIRLADELRVEHIHIRSEHRQGEKLDVKGEIDGDINGVRRRVEVDIHLVIVDGRIRHVKEVIR
- protease stability score: 1.12

Sequence: SEEEELDKKAFKLWIHSLRTGDEDLITELADPRVKMTIGDKEFHGREEFKHAMHELLKRVDHIKDVKLKHWDVINGRLHVIVEVNGNVDGRETYIETSMTSLKINGRWILQSWSVR
- protease stability score: 1.31

Sequence: SEEEELDRRITDLIVHARKTGDEEMWQRYADPHVRLFWFQGDYLLMIVGREDASKWMRHLLEELGIKHIEFKHIDIFDGRSHIDSRVKVNGKERETRHQFVVVNGRITEVREKID
- protease stability score: 0.415

Sequence: SEEEELEEFFIHLMIRMWDTGDFRTFKRLADPNVRLEVNGRHVVGREEVERLLRELLELLGADVIIHRDRDRDKFNGVIVVIIHGQIRQGDKFFDTHLHFVIEKVDGRWLLKSIHIEIR
- protease stability score: 1.5

Sequence: SEEEELEERLTRYWLHAFWTGDWEHLKEMADPDARHRLHFENHTESVHGREYLVLIYVRIIRNLGFKHLEIDHVRVVDGVFRIHGILEVNGRKQRVHIIVVIVNGRLRELVLIFG
- protease stability score: 1.41

Sequence: SEEEELFEIAIRIFLHILHTGNEEDFHRFADPNMRMIIGDKEHHGWEEVFKWFEFVFRHARIKDTEIKSVRIINGRVHNEGRVNININGVEVIKEVHLVSEKVDGKWVLKRVEIR
- protease stability score: 1.52

Sequence: SEEEELFRKLVNLFLRDVLTGDEESLIELMDPDVRVDINGRKNVGWEEVANTWKQMRIRDFEYREVEYYNGQARIHGVRDGNINGVDERTEIEISMSIVDGRLKHVRVHVR
- protease stability score: 2.09

Sequence: SEEEELHDEHLKKIYTALLTGDFDTFRNMVDPHVRLDWNGVRLHGREVVVRTMIELGADHIEIKEVSFQGDKVDLHFREKVNGKEFRVRIEKQKFNGQWSISSEHQR
- protease stability score: 1.14

Sequence: SEEEELHEILLHLLLLMHTTGDEHLLRRLADPNARVDINGREWHGRDLMVKFLVEIRIHRTRIHDERDIDGRVHMETRVDGLWNGVRYTFDTRIHAVKVNGRWLLESYSVE
- protease stability score: 1.21

Sequence: SEEEELHRLLRERYIKNALTGNEKHLRRLADPNTRNNVNGRTHHGWDFYTDMISRLGADHVQIHDRHVDIQGEYIDVHLEVELNINGKHHRLDVRIIILKVDGKWTLHSFEML
- protease stability score: 0.553

Sequence: SEEEELIEYILELWMHAYVTGDEDVVHEMADPNVRIQVGDKKFIGRKTFSETIHELLNRVDHFRLHIRDYKVINGKAIMHIELHYRVNGKDIHHHVDIDVHKINGRWIVKSIHYR
- protease stability score: 1.83

Sequence: SEEEELIHILERLIIEFRRTGNEEAWMNLMDPHAKVEIGDFDLIGRDEVSRWLHHLRIDDIHITLRRFRDIDGRVISYGEENIRVDFNGQHVEFRRRSILILFKVDGQWYIESIHVH
- protease stability score: 0.959

Sequence: SEEEELLEHAYRHLIHTILTGDERLIEEMLDPNVRISIGEYHSHGREEAIRDVHELGIKHSERLHLTHVDSQGNKVRLHVEFVTNVNGVRRHVTVTWHIIKVNGKWYIESWDHQ
- protease stability score: 1.83

Sequence: SEEEELLRRIMKRVIHEWLTGDEDSFKELADPNVRVENIVDGRNIEAVGRDEAEHVWRHFDKHLGVDHRELKEFHVFDGVIRVRMKLKIGDKEIEMHLKFIIIDGRFTRVHSHSV
- protease stability score: 1.31

Sequence: SEEEELLRRITDEMIESMLTGDEKYILENVDPNVRLHIGDKTYVGWETYEDHMRERLEKLGADHMKLEHKDHQGNYTLIEGNLSFNGRELEVRIKLIIVNGVLEQVEVRFD
- protease stability score: 0.955

Sequence: SEEEELLRRLFELFYKIWHTGDFRSLYENADPNTQLDVGDKRFHGMEVVIEALRQIWEKFGFKVELIDEHHVINGQINMDGLLDINGKKMKTHINLRLIDGVMKTIRIDIR
- protease stability score: 0.049

Sequence: SEEEELMKKAMNTILESLKTGDFHTLENLVDPTARSDINGVILHGRELMHHEWERLLRELGVDVWEINEIHLRYVDGVVRIDIDGKVIIGDKSRTVHLRIIAHKIDGRWHIHSISFEVR
- protease stability score: 1.83

Sequence: SEEEELNQKLLEEIIQILITGDWRALLELADPNVRSEVNGVELHGMETHARHLLEMLEKYPNIQVRIHHLEVQGEKIIIHGTIHFNGRDLRLTLVWHVVNGRWKEVRSELR
- protease stability score: 1.35

Sequence: SEEEELQRQLIEEFIRNRLTGDEDRLLELMDPNVRVRVGEKHAHGREEAIKLWHDHLHHWRIRHLTLRDYRVIDGKIHLHGEIHGEYNGKEHHTRTTIIIVHIDGRLRSIRIEID
- protease stability score: 2.12

Sequence: SEEEELRHELAHRWLRAFETGNFHMLLELFDPNTYFEVGDKKFHGREEVSKLLEEIWEHIRFEHVKVREVRLQGDKLHIDGETDGRVNGRDEKRKVEFEVTVINGVIHSVIIRIK
- protease stability score: 2.46
